pKd, pKi: −log10 of the molar value.
Key:
[1] = molecular target: yeast-displayed APPI_(M17G/I18F/F34V) (human); test: flow cytometry on cells
[2] = molecular target: mesotrypsin (Homo sapiens) (UniProt P35030); conditions: cited from earlier work
[3] = molecular target: human kallikrein-6, active (human) (UniProt Q92876); test: enzyme inhibition kinetics

UniProt P35030, sequence (P35030 2-304): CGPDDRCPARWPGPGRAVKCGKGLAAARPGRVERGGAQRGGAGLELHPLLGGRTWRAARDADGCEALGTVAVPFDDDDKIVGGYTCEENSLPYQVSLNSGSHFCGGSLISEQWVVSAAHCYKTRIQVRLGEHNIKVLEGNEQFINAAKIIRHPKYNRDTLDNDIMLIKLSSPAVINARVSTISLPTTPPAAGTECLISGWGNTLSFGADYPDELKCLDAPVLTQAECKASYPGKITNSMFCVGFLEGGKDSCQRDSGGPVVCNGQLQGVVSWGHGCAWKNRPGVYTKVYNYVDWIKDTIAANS

Substance | pKd [1] | other results
catalytically inactive human cationic trypsin S195A, labelled with DyLight 650 (enzyme) | 7.51 | 
catalytically inactive human mesotrypsin S195A, labelled with DyLight 488 (enzyme) | 7.59 | 
APPI Kunitz domain (from UniProt P05067) |  | pKi [2]: 6.85
catalytically inactive human anionic trypsin S195A, labelled with DyLight 650 (enzyme) | 7.38 | 
APPI_(P13W/M17G/I18F/F34V), soluble form (designed binder) |  | pKi [3]: 8.12
